Measured values reported in article PMC10052518.

Tests used:
[1] = biological target: hFcRn (human neonatal Fc receptor) (human) (UniProt P55899); experiment: SPR; bivalent fit, kd1
[2] = biological target: hFcRn (human neonatal Fc receptor) (human) (UniProt P55899); experiment: SPR; bivalent fit, kd2 (second site)
[3] = biological target: hFcRn (human neonatal Fc receptor) (human) (UniProt P55899); experiment: SPR; Bia3000; hFcRn immobilised on CM5 chip (<200 RU); increasing concentrations of antibody injected over 180 s, dissociation 400 s; 25 °C; 50 mM phosphate, 150 mM NaCl, 0.05% P20, pH 6; multi-cycle kinetics, bivalent model fit
[4] = biological target: hFcRn (human neonatal Fc receptor) (human) (UniProt P55899); experiment: SPR; Bia3000; hFcRn immobilised on CM5 chip (<200 RU); increasing concentrations of antibody injected over 180 s, dissociation 400 s; 25 °C; 50 mM phosphate, 150 mM NaCl, 0.05% P20, pH 7; multi-cycle kinetics, bivalent model fit
[5] = biological target: hFcRn (human neonatal Fc receptor) (human) (UniProt P55899); experiment: SPR; pH 7.0, bivalent fit, kd1

UniProt P55899, sequence (P55899 24-297, chain 1 of 2): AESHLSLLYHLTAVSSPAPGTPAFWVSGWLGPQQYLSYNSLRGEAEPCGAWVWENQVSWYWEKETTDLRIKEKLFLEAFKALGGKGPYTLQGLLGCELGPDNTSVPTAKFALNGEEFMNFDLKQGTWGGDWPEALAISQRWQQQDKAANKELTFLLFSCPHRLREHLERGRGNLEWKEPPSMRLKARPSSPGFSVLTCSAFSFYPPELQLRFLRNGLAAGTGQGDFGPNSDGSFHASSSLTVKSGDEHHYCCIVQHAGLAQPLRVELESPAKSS
UniProt P55899, sequence (P61769 21-119, chain 2 of 2, further chain): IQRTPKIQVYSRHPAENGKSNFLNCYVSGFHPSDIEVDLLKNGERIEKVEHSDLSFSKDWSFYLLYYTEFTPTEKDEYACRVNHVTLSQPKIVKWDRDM

Substance | koff [1] [s⁻¹] | koff [2] [s⁻¹] | Kd [3] [nM] | Kd [4] [nM] | other results
B5 (tocilizumab variant T256Y/H285Q/N286D/V308A/N434Y) | 0.0439 | 0.000765 |  |  | 
T8 (tocilizumab variant M252Y/N286E/T307Q/V308P/Q311A/N434Y/Y436V) | 0.000658 | 0.0383 |  |  | 
B5 (tocilizumab variant T256Y/H285Q/N286D/V308A/N434Y) (antibody) |  |  | 45 | 620 | 
T8 (tocilizumab variant M252Y/N286E/T307Q/V308P/Q311A/N434Y/Y436V) (antibody) |  |  | 1.3 | 7.8 | 
Tocilizumab (antibody) |  |  | 380 |  | 
T3 (tocilizumab variant M252Y/T307D/N434Y) (antibody) |  |  | 13 | 380 | 
A3 (tocilizumab variant M252W/M428K/N434W) (antibody) |  |  |  | 570 | 
T3 (tocilizumab variant M252Y/T307D/N434Y) |  |  |  |  | koff [5]: 0.0263 s⁻¹
C7 (tocilizumab variant T256E/N286H/K288E/V308P/L309D/N434Y/Y436K) | 0.0053 | 6.52e-05 |  |  | 
C7 (tocilizumab variant T256E/N286H/K288E/V308P/L309D/N434Y/Y436K) (antibody) |  |  | 34 | 160 | 
